The text below walks through data of paper doi:10.1101/2021.05.17.443621 (bioRxiv, 2021).

The target in the assay is T1, Stt3p (yeast (endogenous), UniProt P39007 1-718, N-glycan at N539).
T1 sequence (looked up): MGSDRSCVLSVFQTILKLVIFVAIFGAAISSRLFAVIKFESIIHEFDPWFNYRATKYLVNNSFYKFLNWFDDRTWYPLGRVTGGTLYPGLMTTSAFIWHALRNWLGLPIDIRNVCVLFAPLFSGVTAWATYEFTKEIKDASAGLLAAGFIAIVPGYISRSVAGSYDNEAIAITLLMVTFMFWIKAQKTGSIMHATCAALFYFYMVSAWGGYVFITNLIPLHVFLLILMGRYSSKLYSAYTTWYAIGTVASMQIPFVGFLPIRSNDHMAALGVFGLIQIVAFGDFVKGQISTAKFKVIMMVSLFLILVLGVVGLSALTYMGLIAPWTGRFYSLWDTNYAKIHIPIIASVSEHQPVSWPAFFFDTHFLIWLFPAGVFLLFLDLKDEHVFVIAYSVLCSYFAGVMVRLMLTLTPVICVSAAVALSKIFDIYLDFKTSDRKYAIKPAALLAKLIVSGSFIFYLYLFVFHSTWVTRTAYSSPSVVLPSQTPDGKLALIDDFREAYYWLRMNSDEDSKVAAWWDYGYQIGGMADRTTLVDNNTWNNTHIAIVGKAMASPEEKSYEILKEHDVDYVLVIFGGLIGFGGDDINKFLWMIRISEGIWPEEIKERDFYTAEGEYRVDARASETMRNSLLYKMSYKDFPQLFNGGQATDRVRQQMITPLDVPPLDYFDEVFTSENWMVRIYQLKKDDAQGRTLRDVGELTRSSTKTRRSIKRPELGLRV
The experiment in a line: cryo-EM structure.

B1: Ost6p (natural protein, yeast, UniProt Q03723 25-332, looked up)
chain: TASHNIDDILQLKDDTGVITVTADNYPLLSRGVPGYFNILYITMRGTNSNGMSCQLCHDFEKTYHAVADVIRSQAPQSLNLFFTVDVNEVPQLVKDLKLQNVPHLVVYPPAESNKQSQFEWKTSPFYQYSLVPENAENTLQFGDFLAKILNISITVPQAFNVQEFVYYFVACMVVFIFIKKVILPKVTNKWKLFSMILSLGILLPSITGYKFVEMNAIPFIARDAKNRIMYFSGGSGWQFGIEIFSVSLMYIVMSALSVLLIYVPKISCVSEKMRGLLSSFLACVLFYFFSYFISCYLIKNPGYPIVF
For the molecule B1, the binding result is listed as “binds”.
